From patent US20250332230A1

Legend:
[1] = biological target: Human Alkaline Phosphatase/ALPI Protein (His Tag) (Sino Biological Cat. No. 13225-H08H) (human) (UniProt P09923); assay: sandwich ECL (MSD), capture AbD54140ad; ST10, HIAP nominal 0.5000 ng/mL
[2] = biological target: Human Alkaline Phosphatase/ALPI Protein (His Tag) (Sino Biological Cat. No. 13225-H08H) (human) (UniProt P09923); assay: sandwich ECL (MSD), capture AbD54140ad; ST05, HIAP nominal 16.00 ng/mL
[3] = biological target: Human Alkaline Phosphatase/ALPI Protein (His Tag) (Sino Biological Cat. No. 13225-H08H) (human) (UniProt P09923); assay: sandwich ECL (MSD), capture AbD54140ad; ULOQ01, HIAP nominal 256.0 ng/mL
[4] = biological target: Human Alkaline Phosphatase/ALPI Protein (His Tag) (Sino Biological Cat. No. 13225-H08H) (human) (UniProt P09923); assay: sandwich ECL (MSD), capture AbD54140ad; ST03, HIAP nominal 64.00 ng/mL
[5] = biological target: Human Alkaline Phosphatase/ALPI Protein (His Tag) (Sino Biological Cat. No. 13225-H08H) (human) (UniProt P09923); assay: sandwich ECL (MSD), capture AbD54140ad; ST08, HIAP nominal 2.000 ng/mL
[6] = biological target: Human Alkaline Phosphatase/ALPI Protein (His Tag) (Sino Biological Cat. No. 13225-H08H) (human) (UniProt P09923); assay: sandwich ECL (MSD), capture AbD54140ad; ST06, HIAP nominal 8.000 ng/mL
[7] = biological target: Human Alkaline Phosphatase/ALPI Protein (His Tag) (Sino Biological Cat. No. 13225-H08H) (human) (UniProt P09923); assay: sandwich ECL (MSD), capture AbD54140ad; ST04, HIAP nominal 32.00 ng/mL
[8] = biological target: Human Alkaline Phosphatase/ALPI Protein (His Tag) (Sino Biological Cat. No. 13225-H08H) (human) (UniProt P09923); assay: sandwich ECL (MSD), capture AbD54140ad; ST02, HIAP nominal 128.0 ng/mL
[9] = biological target: Human Alkaline Phosphatase/ALPI Protein (His Tag) (Sino Biological Cat. No. 13225-H08H) (human) (UniProt P09923); assay: sandwich ECL (MSD), capture AbD54140ad; LLOQ02, HIAP nominal 0.5000 ng/mL
[10] = biological target: Human Alkaline Phosphatase/ALPI Protein (His Tag) (Sino Biological Cat. No. 13225-H08H) (human) (UniProt P09923); assay: sandwich ECL (MSD), capture AbD54140ad; LLOQ01, HIAP nominal 0.5000 ng/mL
[11] = biological target: Human Alkaline Phosphatase/ALPI Protein (His Tag) (Sino Biological Cat. No. 13225-H08H) (human) (UniProt P09923); assay: sandwich ECL (MSD), capture AbD54140ad; ST01, HIAP nominal 256.0 ng/mL
[12] = biological target: Human Alkaline Phosphatase/ALPI Protein (His Tag) (Sino Biological Cat. No. 13225-H08H) (human) (UniProt P09923); assay: sandwich ECL (MSD), capture AbD54140ad; LC02, HIAP nominal 1.500 ng/mL
[13] = biological target: Human Alkaline Phosphatase/ALPI Protein (His Tag) (Sino Biological Cat. No. 13225-H08H) (human) (UniProt P09923); assay: sandwich ECL (MSD), capture AbD54140ad; LC01, HIAP nominal 1.500 ng/mL
[14] = biological target: Human Alkaline Phosphatase/ALPI Protein (His Tag) (Sino Biological Cat. No. 13225-H08H) (human) (UniProt P09923); assay: sandwich ECL (MSD), capture AbD54140ad; MC02, HIAP nominal 12.00 ng/mL
[15] = biological target: Human Alkaline Phosphatase/ALPI Protein (His Tag) (Sino Biological Cat. No. 13225-H08H) (human) (UniProt P09923); assay: sandwich ECL (MSD), capture AbD54140ad; ST09, HIAP nominal 1.000 ng/mL
[16] = biological target: Human Alkaline Phosphatase/ALPI Protein (His Tag) (Sino Biological Cat. No. 13225-H08H) (human) (UniProt P09923); assay: sandwich ECL (MSD), capture AbD54140ad; HC02, HIAP nominal 192.0 ng/mL
[17] = biological target: Human Alkaline Phosphatase/ALPI Protein (His Tag) (Sino Biological Cat. No. 13225-H08H) (human) (UniProt P09923); assay: sandwich ECL (MSD), capture AbD54140ad; ST07, HIAP nominal 4.000 ng/mL
[18] = biological target: Human Alkaline Phosphatase/ALPI Protein (His Tag) (Sino Biological Cat. No. 13225-H08H) (human) (UniProt P09923); assay: sandwich ECL (MSD), capture AbD54140ad; ULOQ02, HIAP nominal 256.0 ng/mL
[19] = biological target: Human Alkaline Phosphatase/ALPI Protein (His Tag) (Sino Biological Cat. No. 13225-H08H) (human) (UniProt P09923); assay: sandwich ECL (MSD), capture AbD54140ad; HC01, HIAP nominal 192.0 ng/mL
[20] = biological target: Human Alkaline Phosphatase/ALPI Protein (His Tag) (Sino Biological Cat. No. 13225-H08H) (human) (UniProt P09923); assay: sandwich ECL (MSD), capture AbD54140ad; MC01, HIAP nominal 12.00 ng/mL

Chain of UniProt P09923 (P09923 20-503 limits assumed): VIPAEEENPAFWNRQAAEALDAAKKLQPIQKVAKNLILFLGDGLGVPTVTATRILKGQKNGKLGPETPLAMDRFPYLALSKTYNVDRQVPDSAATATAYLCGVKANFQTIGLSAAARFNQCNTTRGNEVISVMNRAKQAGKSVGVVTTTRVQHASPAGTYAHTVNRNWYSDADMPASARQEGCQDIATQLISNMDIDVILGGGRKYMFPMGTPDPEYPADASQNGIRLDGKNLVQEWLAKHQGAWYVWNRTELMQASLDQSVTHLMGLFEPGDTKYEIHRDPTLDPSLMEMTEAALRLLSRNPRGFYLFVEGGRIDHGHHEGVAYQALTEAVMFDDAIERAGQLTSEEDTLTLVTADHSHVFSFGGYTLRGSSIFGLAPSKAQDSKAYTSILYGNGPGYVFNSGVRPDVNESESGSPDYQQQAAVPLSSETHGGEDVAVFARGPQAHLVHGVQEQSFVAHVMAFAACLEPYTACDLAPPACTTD

Instrument Response [1]: 3760
Instrument Response [2]: 101000
Instrument Response [3]: 508000
Instrument Response [4]: 301000
Instrument Response [5]: 13000
Instrument Response [6]: 54400
Instrument Response [7]: 186000
Instrument Response [8]: 416000
Instrument Response [9]: 3260
Instrument Response [10]: 3360
Instrument Response [11]: 504000
Instrument Response [12]: 9430
Instrument Response [14]: 68900
Instrument Response [15]: 7040
Instrument Response [16]: 456000
Instrument Response [17]: 27300
Instrument Response [18]: 528000
Instrument Response [19]: 444000
Instrument Response [20]: 64000
Substance: sulfo-tagged anti-HIAP monoclonal antibody AbD54130ad from BioRad
Instrument Response [13]: 9110
